# In US20020086983A1:
# Experiments:
# [1] = target: B42-Mch5b-FDH-A (residues 3-80) (UniProt Q14790); assay: yeast two-hybrid liquid b-gal assay; four independent experiments
# [2] = target: B42-Mch5b-FDH-B (residues 102-177) (UniProt Q14790); assay: as above
# [3] = target: B42-Mch5b-FDH (residues 3-177) (UniProt Q14790); assay: as above
# [4] = target: B42; assay: yeast two-hybrid liquid b-gal assay; activation hybrid alone (background control); four independent experiments
# Sequence of B42-Mch5b-FDH-A (residues 3-80) (Q14790 3-80, form in doubt): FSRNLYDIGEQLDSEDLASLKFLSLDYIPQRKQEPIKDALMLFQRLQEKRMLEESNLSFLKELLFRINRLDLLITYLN
# Sequence of B42-Mch5b-FDH (residues 3-177) (Q14790 3-177, form in doubt): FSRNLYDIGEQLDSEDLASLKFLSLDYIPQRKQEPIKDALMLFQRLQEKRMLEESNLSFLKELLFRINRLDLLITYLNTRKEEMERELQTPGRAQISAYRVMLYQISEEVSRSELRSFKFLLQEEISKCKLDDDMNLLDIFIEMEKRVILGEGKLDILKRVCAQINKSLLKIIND
# Sequence of B42-Mch5b-FDH-B (residues 102-177) (Q14790 102-177, form in doubt): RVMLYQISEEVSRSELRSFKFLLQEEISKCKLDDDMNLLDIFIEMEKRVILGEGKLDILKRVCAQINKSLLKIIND
substance,measurement,setting,value
LexA-FLAME-1-FDH (residues 1-160) (from UniProt O15519 1-160),Liquid assay b-gal activity,[1],52.7 Miller units
same,Liquid assay b-gal activity,[2],728 Miller units
same,Liquid assay b-gal activity,[3],300 Miller units
same,Liquid assay b-gal activity,[4],23.2 Miller units
